Columns and labels:
[1] = target: T1, cynomolgus SIRPβ1v3 (XP_005568593) extracellular domain + His-tag (cynomolgus monkey); assay: SPR, antibody captured, ECD-His analyte
T1 construct: SPR analyte; also called Cyno SIRPβ1v3 XP_005568593; cynoSIRPβ1v3; not shown: His-tag
T1 chain: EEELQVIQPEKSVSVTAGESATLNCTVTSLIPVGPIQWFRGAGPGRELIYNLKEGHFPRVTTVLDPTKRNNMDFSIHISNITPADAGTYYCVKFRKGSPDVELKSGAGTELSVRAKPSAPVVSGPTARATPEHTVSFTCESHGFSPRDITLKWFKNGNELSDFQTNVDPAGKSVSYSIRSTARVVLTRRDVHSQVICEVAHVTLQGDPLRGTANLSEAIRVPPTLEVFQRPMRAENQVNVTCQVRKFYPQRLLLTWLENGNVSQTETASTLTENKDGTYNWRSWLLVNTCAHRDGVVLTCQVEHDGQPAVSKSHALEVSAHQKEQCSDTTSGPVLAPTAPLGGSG
Protocol: (§1) The binding affinity of anti-SIRPα antibodies to the various SIRPα analytes is determined by surface plasmon resonance (SPR) using a ProteOn XPR36 (Bio-Rad). The running buffer for this experiment and all dilutions (except where stated) are done in 1×HBS-EP+. […] The sensorchip is deactivated with 1M ethanolamine HCl for 420 sec at a flowrate of 10 μl/min.
(§2) The analyte is injected over the captured antibody for 300 sec at a flowrate of 30 μl/min. The dissociation is done for 600 sec. Two-fold serial dilutions of each SIRP protein (Extracellular Domain+His-Tag) are injected as analyte with the highest concentrations indicated in table 36 below.

[2] = target: T2, cynomolgus SIRPα (EGM_02252) extracellular domain + His-tag (cynomolgus monkey); assay: SPR
T2 construct: SPR analyte; also called CySIRPα EGM_02252; cynoSIRPα; not shown: His-tag
T2 chain: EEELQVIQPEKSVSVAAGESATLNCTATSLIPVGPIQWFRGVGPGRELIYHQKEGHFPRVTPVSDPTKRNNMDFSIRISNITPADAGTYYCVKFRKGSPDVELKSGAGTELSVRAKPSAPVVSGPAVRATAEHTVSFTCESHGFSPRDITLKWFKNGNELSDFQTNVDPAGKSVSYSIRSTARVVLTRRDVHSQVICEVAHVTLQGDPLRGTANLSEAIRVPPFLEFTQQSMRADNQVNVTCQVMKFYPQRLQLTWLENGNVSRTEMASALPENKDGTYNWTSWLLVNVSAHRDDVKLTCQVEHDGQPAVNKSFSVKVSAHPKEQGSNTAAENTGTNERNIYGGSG
Protocol: as §1, §2

[3] = target: T3, cynomolgus SIRPβ1 (XP_005568598) extracellular domain + His-tag (cynomolgus monkey); assay: SPR
T3 construct: SPR analyte; also called Cyno SIRPβ1 XP_005568598; cynoSIRPβ1; not shown: His-tag
T3 chain: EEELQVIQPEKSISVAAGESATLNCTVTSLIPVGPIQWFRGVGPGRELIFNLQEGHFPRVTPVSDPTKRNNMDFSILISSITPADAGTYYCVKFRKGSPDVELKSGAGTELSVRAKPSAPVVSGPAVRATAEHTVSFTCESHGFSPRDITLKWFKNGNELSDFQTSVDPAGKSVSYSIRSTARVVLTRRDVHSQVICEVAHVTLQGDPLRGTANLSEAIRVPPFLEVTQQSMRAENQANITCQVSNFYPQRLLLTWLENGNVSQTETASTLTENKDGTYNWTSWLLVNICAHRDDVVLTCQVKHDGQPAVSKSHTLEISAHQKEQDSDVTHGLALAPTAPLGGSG
Protocol: as §1, §2

[4] = target: T4, cynomolgus SIRPγ (XP_005568591) extracellular domain + His-tag (cynomolgus monkey, UniProt Q9P1W8 29-359 (human entry)); assay: SPR
T4 construct: SPR analyte; also called Cyno SIRPγ XP_005568591; cynoSIRPγ; not shown: His-tag
T4 chain: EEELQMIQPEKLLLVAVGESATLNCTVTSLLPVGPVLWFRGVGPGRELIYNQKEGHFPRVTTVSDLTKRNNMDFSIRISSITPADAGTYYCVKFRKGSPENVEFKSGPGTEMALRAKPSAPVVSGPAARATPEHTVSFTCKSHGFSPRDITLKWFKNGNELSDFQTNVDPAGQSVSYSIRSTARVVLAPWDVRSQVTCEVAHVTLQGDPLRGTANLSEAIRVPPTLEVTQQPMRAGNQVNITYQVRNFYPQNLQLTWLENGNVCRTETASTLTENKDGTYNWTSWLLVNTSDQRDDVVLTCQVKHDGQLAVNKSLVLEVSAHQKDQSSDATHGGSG
Protocol: as §1, §2

Binder | Kd [1] | binding result [2] | binding result [3] | binding result [4]
Antibody E9 (antibody, human IgG1, kappa, L234A L235A, V domains shown) VH: QVQLQESGPGLVRPSETLSLTCTVSGGSIRNYYWSWIRQPPGKGLEWIGFIYYNGRTFYNPSLKSRVTISLDMSINQFSLKMTSVTAADTAVYYCARVRAYSGIGLDGTDVWGQGTTVTVSS VL: DIVMTQSPLSLPVTPGEPASISCKSSQSLLYSNAYNYLDWYLQRPGQSPQLLIYLGSNRASGVPDRFSGSGSGTDFTLKISRVEAEDVGVYYCMQALQTPLTFGGGTKVEIKR | 25.1 nM | no binding (tested: 1000 nM) | no binding (tested: 1000 nM) | no binding (tested: 1000 nM)
Antibody E10 (antibody, human IgG1, kappa, L234A L235A, V domains shown) VH: QVQLQESGPGLVRPSETLSLTCTVSGGSIRNYYWSWIRQPPGKGLEWIGFIYYNGRTFYNPSLKSRVTISLDTSKNQFSLKMTSVTAADTAVYYCARVRAYSGIGLDGTDVWGQGTTVTVSS VL: DIVMTQSPLSLPVTPGEPASISCKSSQSLLYSNGYAYLDWYLQRPGQSPQLLIYLGSNRASGVPDRFSGSGSGTDFTLKISRVEAEDVGVYYCMQALQTPLTFGGGTKVEIKR | 15.7 nM | no binding (tested: 1000 nM) | no binding (tested: 1000 nM) | no binding (tested: 1000 nM)
Antibody E11 (antibody, human IgG1, kappa, L234A L235A, V domains shown) VH: QVQLQESGPGLVRPSETLSLTCTVSGGSIRNYYWSWIRQPPGKGLEWMGFIYDNGRTFYNPSLKSRVTISLDMSMNQFSLKMTSVTAADTAVYYCARVRAYSGIGLDGTDVWGQGTTVTVSS VL: DIVMTQSPLSLPVTPGEPASISCKSSQSLLYSNGYAYLDWYLQRPGQSPQLLIYLGSNRASGVPDRFSGSGSGTDFTLKISRVEAEDVGVYYCMQALQTPLTFGGGTKVEIKR | 13.2 nM | no binding (tested: 1000 nM) | no binding (tested: 1000 nM) | no binding (tested: 1000 nM)
Antibody E12 (antibody, human IgG1, kappa, L234A L235A, V domains shown) VH: QVQLQESGPGLVRPSETLSLTCTVSGGSIRNYYWSWIRQPPGKGLEWIGFIYYNGRTFYNPSLKSRVTISLDMSKNQFSLKMTSVTAADTAVYYCARVRAYSGIGLDGTDVWGQGTTVTVSS VL: DIVMTQSPLSLPVTPGEPASISCKSSQSLLYSNAYNYLDWYLQRPGQSPQLLIYLGSNRASGVPDRFSGSGSGTDFTLKISRVEAEDVGVYYCMQALQTPLTFGGGTKVEIKR | 27.9 nM | no binding (tested: 1000 nM) | no binding (tested: 1000 nM) | no binding (tested: 1000 nM)
Antibody E13 (antibody, human IgG1, kappa, L234A L235A, V domains shown) VH: QVQLQESGPGLVRPSETLSLTCTVSGGSIRNYYWSWIRQPPGKGLEWIGFIYYTGRTFYNPSLKSRVTISLDMSINQFSLKMTSVTAADTAVYYCARVRAYSGIGLDGTDVWGQGTTVTVSS VL: DIVMTQSPLSLPVTPGEPASISCKSSQSLLYSNGYAYLDWYLQRPGQSPQLLIYQGSNRASGVPDRFSGSGSGTDFTLKISRVEAEDVGVFYCMQALQTPLTFGGGTKVEIKR | 20.5 nM | no binding (tested: 1000 nM) | no binding (tested: 1000 nM) | no binding (tested: 1000 nM)
Antibody E14 (antibody, human IgG1, kappa, L234A L235A, V domains shown) VH: QVQLQESGPGLVRPSETLSLTCTVSGGSIRNYYWSWIRQPPGKGLEWIGFIYYNGRTFYNPSLKSRVTISLDKSKNQFSLKMTSVTAADTAVYYCARVRAYSGIGLDGTDVWGQGTTVTVSS VL: DIVMTQSPLSLPVTPGEPASISCKSSQSLLYSNAYNYLDWYLQRPGQSPQLLIYLGSNRASGVPDRFSGSGSGTDFTLKISRVEAEDVGVYYCMQALQTPLTFGGGTKVEIKR | 51.9 nM | no binding (tested: 1000 nM) | no binding (tested: 1000 nM) | no binding (tested: 1000 nM)
Antibody E15 (antibody, human IgG1, kappa, L234A L235A, V domains shown) VH: QVQLQESGPGLVRPSETLSLTCTVSGGSIRNYYWSWIRQPPGKGLEWIGFIYYTGRTFYNPSLKSRVTISLDMSINQFSLKMTSVTAADTAVYYCARVRAYSGIGLDGTDVWGQGTTVTVSS VL: DIVMTQSPLSLPVTPGEPASISCKSSQSLLYSNGYAYLDWYLQRPGQSPQLLIYLGSNRASGVPDRFSGSGSGTDFTLKISRVEAEDVGVYYCMQALQTPLTFGGGTKVEIKR | 25.8 nM | no binding (tested: 1000 nM) | no binding (tested: 1000 nM) | no binding (tested: 1000 nM)
Antibody E17 (antibody, human IgG1, kappa, L234A L235A, V domains shown) VH: QVQLQESGPGLVRPSETLSLTCTVSGGSIRNYYWSWIRQPPGKGLEWMGFIYDNGRTFYNPSLKSRVTISLDMSMNQFSLKMTSVTAADTAVYYCARVRAYSGIGLDGTDVWGQGTTVTVSS VL: DIVMTQSPLSLPVTPGEPASISCKSSQSLLYSNAYNYLDWYLQRPGQSPQLLIYLGSNRASGVPDRFSGSGSGTDFTLKISRVEAEDVGVYYCMQALQTPLTFGGGTKVEIKR | 27 nM | no binding (tested: 1000 nM) | no binding (tested: 1000 nM) | no binding (tested: 1000 nM)
Antibody E18 (antibody, human IgG1, kappa, L234A L235A, V domains shown) VH: QVQLQESGPGLVRPSETLSLTCTVSGGSIRNYYWSWIRQPPGKGLEWIGFIYYTGRTFYNPSLKSRVTISLDMSKNQFSLKMTSVTAADTAVYYCARVRAYSGIGLDGTDVWGQGTTVTVSS VL: DIVMTQSPLSLPVTPGEPASISCKSSQSLLYSNGYAYLDWYLQRPGQSPQLLIYLGSNRASGVPDRFSGSGSGTDFTLKISRVEAEDVGVYYCMQALQTPLTFGGGTKVEIKR | 27.8 nM | no binding (tested: 1000 nM) | no binding (tested: 1000 nM) | no binding (tested: 1000 nM)
Antibody E19 (antibody, human IgG1, kappa, L234A L235A, V domains shown) VH: QVQLQESGPGLVRPSETLSLTCTVSGGSIRNYYWSWIRQPPGKGLEWIGFIYYTGRTFYNPSLKSRVTISLDMSKNQFSLKMTSVTAADTAVYYCARVRAYSGIGLDGTDVWGQGTTVTVSS VL: DIVMTQSPLSLPVTPGEPASISCKSSQSLLYSNGYAYLDWYLQRPGQSPQLLIYQGSNRASGVPDRFSGSGSGTDFTLKISRVEAEDVGVFYCMQALQTPLTFGGGTKVEIKR | 25 nM | no binding (tested: 1000 nM) | no binding (tested: 1000 nM) | no binding (tested: 1000 nM)
Antibody E20 (antibody, human IgG1, kappa, L234A L235A, V domains shown) VH: QVQLQESGPGLVRPSETLSLTCTVSGGSIRNYYWSWIRQPPGKGLEWIGFIYYTGRTFYNPSLKSRVTISLDMSINQFSLKMTSVTAADTAVYYCARVRAYSGIGLDGTDVWGQGTTVTVSS VL: DIVMTQSPLSLPVTPGEPASISCKSSQSLLYSNAYNYLDWYLQRPGQSPQLLIYLGSNRASGVPDRFSGSGSGTDFTLKISRVEAEDVGVYYCMQALQTPLTFGGGTKVEIKR | 57.4 nM | no binding (tested: 1000 nM) | no binding (tested: 1000 nM) | no binding (tested: 1000 nM)

Reference: patent publication US20230012273A1 (Boehringer Ingelheim, published 2023)
